From US20080003218A1 (Genentech, published 2008)
Read-outs that look alike come from different tables or passages of the source.

Assays:
human IgE [1] = molecular target: T1, human IgE (human, UniProt P01854 1-546); test: equilibrium binding (Scatchard), 125I-IgE
human IgE [2] = molecular target: T1, human IgE; test: soluble receptor assay, biotin-IgE binding to coated FcεRI α-chain IgG chimera
[3] = molecular target: IgE bound to FcεRI on human peripheral blood basophils (human, UniProt P01854 1-546; P12319 26-257); test: cell-based or functional assay
Chain of IgE bound to FcεRI on human peripheral blood basophils (P01854 whole entry, chain 1 of 2): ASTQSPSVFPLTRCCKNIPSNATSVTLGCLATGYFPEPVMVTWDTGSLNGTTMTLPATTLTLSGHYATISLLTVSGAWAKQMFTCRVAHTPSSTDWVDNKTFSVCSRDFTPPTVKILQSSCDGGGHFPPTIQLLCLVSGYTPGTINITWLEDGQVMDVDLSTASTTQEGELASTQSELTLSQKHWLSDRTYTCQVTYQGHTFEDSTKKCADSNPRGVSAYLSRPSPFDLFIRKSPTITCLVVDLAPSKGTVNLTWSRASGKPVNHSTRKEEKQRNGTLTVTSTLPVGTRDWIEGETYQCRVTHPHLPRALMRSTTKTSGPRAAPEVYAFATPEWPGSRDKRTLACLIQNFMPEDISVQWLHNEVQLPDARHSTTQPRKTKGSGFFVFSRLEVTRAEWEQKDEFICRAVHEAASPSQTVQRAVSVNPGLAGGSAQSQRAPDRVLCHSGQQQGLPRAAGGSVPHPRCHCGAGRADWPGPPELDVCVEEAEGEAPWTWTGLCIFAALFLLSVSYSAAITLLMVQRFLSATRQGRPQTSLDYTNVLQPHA
Chain of IgE bound to FcεRI on human peripheral blood basophils (P12319 26-257, chain 2 of 2): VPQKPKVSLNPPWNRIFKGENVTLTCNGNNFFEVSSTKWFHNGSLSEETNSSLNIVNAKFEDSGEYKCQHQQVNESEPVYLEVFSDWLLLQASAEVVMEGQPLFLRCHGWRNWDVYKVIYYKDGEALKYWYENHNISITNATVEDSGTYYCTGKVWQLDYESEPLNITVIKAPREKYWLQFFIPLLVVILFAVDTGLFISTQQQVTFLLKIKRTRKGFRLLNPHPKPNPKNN

human IgE [4] = molecular target: T1, human IgE; test: soluble receptor assay, biotin-IgE binding to coated FcεRI α-chain IgG chimera; remark: listed apart in the source
[5] = molecular target: membrane IgE on U266B1 cells (human, UniProt P01854 1-546); test: FACS on membrane IgE+ U266B1 cells
Chain of membrane IgE on U266B1 cells (P01854 whole entry, one chain of several): as the sequence (P01854 whole entry, chain 1 of 2) above

T1 sequence (P01854 whole entry): as the sequence (P01854 whole entry, chain 1 of 2) above

B1: murine anti-human IgE monoclonal antibody MaE11 (antibody, V domains shown)
VH: DVQLQESGPGLVKPSQSLSLACSVTGYSITSGYSWNWIRQFPGNKLEWMGSITYDGSSNYNPSLKNRISVTRDTSQNQFFLKLNSATAEDTATYYCARGSHYFGHWHFAVWGAGTTVTVSS
VL: DIQLTQSPASLAVSLGQRATISCKASQSVDYDGDSYMNWYQQKPGQPPILLIYAASYLGSEIPARFSGSGSGTDFTLNIHPVEEEDAATFYCQQSHEDPYTFGAGTKLEIK
notes: Murine IgG1; immunogen U266 IgE; also called murine mAb MaE11
Question: With B1 as the binder, how does the Kd (human IgE [1]) read?
Answer: 30 nM

Question: And the IC50 (human IgE [2])?
Answer: 0.449 µg/mL

Question: And the “ratio Variant X/IgG1-2” value (human IgE [2])?
Answer: 0.06 ratio

Question: And the “ratio Variant X/MaE11” value (human IgE [2])?
Answer: 1 ratio

Question: What about the “PBL histamine release (EC50)” value [3] of the same binder?
Answer: > 100 µg/mL

Question: And the IC50 (human IgE [4])?
Answer: 0.179 µg/mL

Question: And the “ratio F(ab)-X/F(ab)-2” value (human IgE [4])?
Answer: 0.03 ratio

Question: What about the “ratio F(ab)-X/MaE11” value (human IgE [4]) of the same binder?
Answer: 1 ratio

Question: What about the EC50 [5] of the same binder?
Answer: 0.15 µg/mL
